The source of these data is patent US20210188980A1 (SHANGHAI EPIMAB BIOTHERAPEUTICS, published 2021).

Assay [1] addresses T1, human LAG-3 expressed on cells (human, UniProt P18627 23-525).
T1 construct: whole, on cells; also called HEK 293F cells expressing human LAG-3; T hybridoma-huLAG-3 cells
T1 sequence (looked up): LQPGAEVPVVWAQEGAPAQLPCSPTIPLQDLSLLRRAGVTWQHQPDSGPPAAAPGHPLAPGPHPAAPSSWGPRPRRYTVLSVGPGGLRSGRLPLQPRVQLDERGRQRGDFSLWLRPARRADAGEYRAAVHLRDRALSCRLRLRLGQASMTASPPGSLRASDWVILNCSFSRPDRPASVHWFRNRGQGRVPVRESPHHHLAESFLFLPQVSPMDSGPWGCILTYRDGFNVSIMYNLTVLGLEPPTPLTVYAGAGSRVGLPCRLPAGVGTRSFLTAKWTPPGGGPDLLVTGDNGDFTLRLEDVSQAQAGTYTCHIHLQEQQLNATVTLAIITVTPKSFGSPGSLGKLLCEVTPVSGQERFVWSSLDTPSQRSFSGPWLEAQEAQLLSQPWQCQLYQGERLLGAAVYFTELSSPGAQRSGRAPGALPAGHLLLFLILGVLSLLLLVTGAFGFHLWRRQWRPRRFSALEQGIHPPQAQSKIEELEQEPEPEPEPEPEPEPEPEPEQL
The experiment in a line: flow cytometry, biotinylated antibody + FITC-streptavidin, CD3 T cells; panel 'PBMC stimulation for 72h, PD1 antibody treated group' (cells pre-treated with unlabelled HumAb713-7). On the procedure: (§1) To further evaluate the cell surface binding ability of FIT107-1-7b-1, the parental antibodies HumAb713-7, HumAb747V-67, and the bispecific FIT-Ig FIT107-1-7b-1 were biotinylated with biotin reagent (Sigma, Cat. No. S3259). For PBMC without stimulation, PBMCs were re-suspended at 5×10⁶ cells/mi. For PD-1 antibody (HumAb713-7) or LAG-3 antibody (HumAb747V-67) testing, 100 μg/ml of antibody were added and the reaction mixture allowed to incubate at 37° C. for 40 minutes separately, followed by two washes with FACS buffer. Then 100 μl, 5×10⁵ PBMC/well (untreated group, anti-PD-1 antibody treated group and anti-LAG-3 antibody treated group) were seeded into wells of 96-well plate. Biotinylated HumAb713-7, HumAb747V-67 and FIT107-1-7b-1 were added and incubated at 37° C. for 40 minutes (final working concentration starting from 100 nM with 3-fold serial dilution) followed by washing with FACS buffer twice. FITC-streptavidin and BV421-anti human-CD3 antibody were added and the assay plate incubated at 4° C. for 30 minutes, followed by washing with FACS buffer twice. The plate was analyzed with a Beckman Coulter CytoFlex flow cytometer, PBMC stimulation groups were stimulated with anti-CD3 plus anti-CD28 antibody for 72 hours, to induce PD-1 and LAG-3 expression on T cells. […]

The target of assay [2] is T2, recombinant human LAG-3-his protein (Novoprotein) (human, UniProt P18627 23-450).
T2 construct: Bought; also called huLAG-3; not shown: His tag
T2 sequence (looked up): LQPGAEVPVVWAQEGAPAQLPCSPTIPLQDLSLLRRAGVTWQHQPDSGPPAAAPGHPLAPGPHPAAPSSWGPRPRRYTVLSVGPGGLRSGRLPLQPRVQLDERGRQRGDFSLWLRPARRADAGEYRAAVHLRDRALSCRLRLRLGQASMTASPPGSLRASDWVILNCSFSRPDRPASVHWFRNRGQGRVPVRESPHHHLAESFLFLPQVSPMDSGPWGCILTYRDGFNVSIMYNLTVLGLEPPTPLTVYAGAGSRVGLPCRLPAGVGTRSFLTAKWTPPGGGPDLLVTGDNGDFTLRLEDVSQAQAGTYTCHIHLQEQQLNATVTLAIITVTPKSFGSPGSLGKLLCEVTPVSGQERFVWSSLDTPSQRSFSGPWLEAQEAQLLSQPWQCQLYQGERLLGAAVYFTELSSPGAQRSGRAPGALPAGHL
The experiment in a line: BLI Octet, Ab on AHC sensor, huLAG-3-his; test group 2. The protocol:
All 9 humanized antibodies (Table 25) and a chimeric antibody having the parental murine VH and VL domains (mAb747c) were ranked by dissociation rate constant (koff). Briefly, antibodies were characterized for affinities and binding kinetics by Octet RED96 biolayer interferometry (Pall FortéBio LLC). Antibodies were captured by Anti-HIgG Fc Capture (AHC) Biosensors (Pall) at a concentration of 100 nM for 30 seconds. Sensors were then dipped into running buffer (1× pH7.2 PBS, 0.05% Tween 20, 0.1% BSA) for 60 seconds to check baseline. Binding was measured by dipping sensors into a single concentration of recombinant human LAG-3-his protein (Novoprotein). Dissociation was followed by dipping sensors into running buffer for 1200 seconds. The association and dissociation curves were fitted to a 1:1 Langmuir binding model using FortéBio Data Analysis software (Pall).
All 13 humanized antibodies (Table 39) and chimeric anti-LAG-3 antibody mAb747c having the parental murine VH and VL domains were ranked by dissociation rate constant (koff) in the same manner described in Example 9.1 supra. In each test group, the off-rates of antibodies were able to be compared with that of mAb747c. The off-rate ratios were calculated by the off-rate of antibody to that of mAb747c of its group and were compared all together. The lower the ratio was, the higher was the affinity of the antibody.

Assay [3] deals with T1, human LAG-3 expressed on cells. The experiment in a line: flow cytometry, biotinylated antibody + FITC-streptavidin, CD3 T cells; panel 'PBMC stimulation for 72h, untreated group' (anti-CD3 plus anti-CD28). On the procedure:
as §1

Assay [4] concerns the target T3, human PD-1 expressed on cells (human, UniProt Q15116 25-288).
T3 construct: whole, on cells; also called CHO-K1/huPD-1; CHO-K1-hPD-1 cells
The experiment in a line: flow cytometry, biotinylated antibody + FITC-streptavidin, CD3 T cells; panel 'PBMC stimulation for 72h, Lag3 antibody treated group' (cells pre-treated with unlabelled HumAb747V-67). The protocol:
as §1

Assay [5] addresses T3, human PD-1 expressed on cells. The experiment in a line: cell RBA FACS; competitor PD-L2/Fc.
In assay [6] the target is T4, human PD-1-His protein (human, UniProt Q15116 25-167, limits assumed).
T4 construct: also called huPD-1; not shown: His tag
T4 sequence (Q15116 25-167 limits assumed): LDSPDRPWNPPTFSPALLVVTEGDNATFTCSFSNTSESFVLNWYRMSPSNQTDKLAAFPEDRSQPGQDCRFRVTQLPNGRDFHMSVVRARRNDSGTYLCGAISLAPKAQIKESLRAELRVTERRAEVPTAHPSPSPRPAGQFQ
In words: SPR Biacore.

Assay [7] concerns the target T3, human PD-1 expressed on cells. In words: flow cytometry, biotinylated antibody + FITC-streptavidin, CD3 T cells; panel 'PBMC without stimulation, untreated group'. The protocol: as §1
Assay [8] has the same target. In words: cell RBA FACS; competitor PD-L1/Fc.
Assay [9] shares this target. In words: flow cytometry, biotinylated antibody + FITC-streptavidin, CD3 T cells; panel 'PBMC without stimulation, Lag3 antibody treated group' (cells pre-treated with unlabelled HumAb747V-67). The protocol:
as §1

Assay [10] shares this target. In words: flow cytometry, biotinylated antibody + FITC-streptavidin, CD3 T cells; panel 'PBMC stimulation for 72h, untreated group' (anti-CD3 plus anti-CD28). On the procedure: as §1
For assay [11], the target named is T1, human LAG-3 expressed on cells. The experiment in a line: flow cytometry, biotinylated FIT-Ig + FITC-streptavidin, CD3 T cells; panel 'PBMC stimulation for 72h, PD1 antibody treated group'; PD-1 pre-blocked with unlabelled HumAb713-7, so the signal is laid to LAG-3. On the procedure: as §1
Another assay deals with Cyno LAG-3-His (cynomolgus). The experiment in a line: BLI Octet, FIT-Ig captured, antigen analyte.
The target of assay [12] is T2, recombinant human LAG-3-his protein …. The experiment in a line: BLI Octet, FIT-Ig captured, antigen analyte.
The target of the next assay is Cyno PD-1-His (cynomolgus, UniProt B0LAJ3 25-170). In words: BLI Octet, FIT-Ig captured, antigen analyte.
Sequence of Cyno PD-1-His (B0LAJ3 entry or part of it limits assumed): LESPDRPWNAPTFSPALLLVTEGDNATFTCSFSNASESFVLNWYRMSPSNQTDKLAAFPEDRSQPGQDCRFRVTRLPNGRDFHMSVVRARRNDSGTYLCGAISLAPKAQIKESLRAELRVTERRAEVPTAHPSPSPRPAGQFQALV
Assay [13] has as its target T4, human PD-1-His protein. The experiment in a line: BLI Octet, FIT-Ig captured, antigen analyte.

T3 sequence (Q15116 25-288): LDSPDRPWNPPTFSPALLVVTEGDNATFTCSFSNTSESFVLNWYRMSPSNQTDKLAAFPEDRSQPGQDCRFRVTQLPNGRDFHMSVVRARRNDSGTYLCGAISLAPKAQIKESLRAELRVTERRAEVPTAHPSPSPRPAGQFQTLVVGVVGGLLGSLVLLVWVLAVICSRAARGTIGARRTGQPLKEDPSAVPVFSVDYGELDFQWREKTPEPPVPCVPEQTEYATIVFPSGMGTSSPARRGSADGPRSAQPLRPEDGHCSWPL

B1: HumAb747V-67 (antibody, human IgG1, V domains shown)
VH: EVQLVQSGAEVKKPGATVKLSCTASGFNIKDDYMHWVKQRPEQGLDWIGWIVPENGNTVYASKFQGKATITADTSTNTAYLELSSLRSEDTAVYYCTVYGDYWGQGTTVTVSS
VL: DIQMTQSPSSLSASVGDRVTITCRASQEISGYLSWLQQKPGGAIKRLIYAASALDSGVPSRFSGSRSGSDYTLTISSLQPEDFADYYCLQYASYPLTFGQGTKLELK
notes: engineered HumAb747-60 variant; human IgG1/kappa constant domains
Regarding B1, the “EC50 (read off the curve)” value in assay [1] was in the range of 1 to 2 nM. Moreover, in [2], the koff is 0.000319 s⁻¹ and the “off-rate ratio to that of mAb747c” value came to 47%. In [3], the concentration for a half-maximal effect (EC50 (read off the curve)) was around 1 nM.

B2: HumAb713-7 (antibody, human IgG1, kappa, L234A L235A, V domains shown)
VH: EVQLVESGGGLVQPGGSLRLSCAASGFTSSDYGMHWVRQAPGKGLEWVSYISSGSYTIYYADTVKGRFTISRDNAKNSLYLQMNSLRDEDTAVYYCAKRGGSSHVNVMDYWGQGTTVTVSS
VL: DIQMTQSPSSLSASVGDRVTITCKASDHINNWLAWYQQKPGKAPKLLIYGATSLETGVPSRFSGSGSGTDYTFTISSLQPEDIATYYCQQYWSPPYTFGGGTKVEIKR
notes: humanized mAb713
In the case of B2, the “EC50 (read off the curve)” value in assay [4] is around 3 nM; in assay [7], around 3 nM; in assay [9], around 3 nM; in assay [10] it was around 2 nM. Also, the IC50 is 1.4 nM in assay [5] and 0.76 nM in assay [8]. Further, in the assay with human PD-1-His protein [6], the Kd was found to be 2.83 nM. Further, the koff in the assay with human PD-1-His protein [6] amounted to 0.00035 s⁻¹. The same molecule returned a kon with human PD-1-His protein [6] of 124000 M⁻¹ s⁻¹.

B3: FIT107-1-7b-1 (bispecific antibody, human IgG1, kappa, L234A L235A)
chain 1: not shown
chain 2: EVQLVQSGAEVKKPGATVKLSCTASGFNIKDDYMHWVKQRPEQGLDWIGWIVPENANTVYASKFQGKATITADTSTNTAYLELSSLRSEDTAVYYCTVYGDYWGQGTTVTVSSASTKGPSVFPLAPSSKSTSGGTAALGCLVKDYFPEPVTVSWNSGALTSGVHTFPAVLQSSGLYSLSSVVTVPSSSLGTQTYICNVNHKPSNTKVDKKVEPKSC
chain 3: not shown
notes: FIT-Ig hexamer; outer Fab anti-LAG-3 (HumAb747V-67 with VH G55A), inner Fab anti-PD-1 (HumAb713-7); also called FIT107-7b-1
For B3, in assay [11], the “EC50 (read off the curve)” value was around 1 nM. In addition, the Kd with Cyno LAG-3-His amounted to 0.123 nM; in assay [12], 1.22 nM; with Cyno PD-1-His, 3.61 nM; with human PD-1-His protein [13] it was 10.4 nM. For the same molecule, the koff with Cyno LAG-3-His was 6.36e-05 s⁻¹; in assay [12], 0.000243 s⁻¹; with Cyno PD-1-His, 0.000775 s⁻¹; with human PD-1-His protein [13], 0.000935 s⁻¹. For the same molecule, the kon was 519000 M⁻¹ s⁻¹ with Cyno LAG-3-His, 200000 M⁻¹ s⁻¹ in assay [12], 215000 M⁻¹ s⁻¹ with Cyno PD-1-His and 89600 M⁻¹ s⁻¹ with human PD-1-His protein [13].
